Laboratory results taken from patent US20170072062A1 (published 2017).
Blank lines part the entries; values can stand above or below the binder they belong to. Ends that are not written are not given here. * marks the point of attachment. Methacryloyl = C=C(C)C(=O)*

Key:
[1] = molecular target: type V tartrate-resistant acid phosphatase (TRAP) protein, immobilised on CM5 sensor chip; experiment: SPR, TRAP on CM5 chip, initial rate analysis of sensorgrams
[2] = molecular target: type V tartrate-resistant acid phosphatase (TRAP) protein, immobilised on CM5 sensor chip; experiment: SPR, TRAP on CM5 chip; lower end of a range told of the peptide-functionalized polymers
[3] = molecular target: type V tartrate-resistant acid phosphatase (TRAP) protein, immobilised on CM5 sensor chip; experiment: SPR, TRAP on CM5 chip, binding curve fit (n = 2, Ave. ± StDev)
[4] = molecular target: type V tartrate-resistant acid phosphatase (TRAP) protein, immobilised on CM5 sensor chip; experiment: SPR, TRAP on CM5 chip; upper end of a range told of the peptide-functionalized polymers
[5] = molecular target: type V tartrate-resistant acid phosphatase (TRAP) protein, immobilised on CM5 sensor chip; experiment: SPR, TRAP on CM5 chip, steady-state response vs concentration fit
[6] = molecular target: type V tartrate-resistant acid phosphatase (TRAP) protein, immobilised on CM5 sensor chip; experiment: SPR, TRAP on CM5 chip, binding curve fit
[7] = molecular target: T1, TRAP deposited by previous osteoclast activity on human cortical bone wafers (human, UniProt P13686 22-325, limits assumed); experiment: confocal imaging of fluorescent peptide on human cortical bone wafers decorated with TRAP
T1 construct: The target is TRAP on a bone surface, not purified protein; The species follows from the human donor bone; also called bone resorption pits
T1 sequence (looked up): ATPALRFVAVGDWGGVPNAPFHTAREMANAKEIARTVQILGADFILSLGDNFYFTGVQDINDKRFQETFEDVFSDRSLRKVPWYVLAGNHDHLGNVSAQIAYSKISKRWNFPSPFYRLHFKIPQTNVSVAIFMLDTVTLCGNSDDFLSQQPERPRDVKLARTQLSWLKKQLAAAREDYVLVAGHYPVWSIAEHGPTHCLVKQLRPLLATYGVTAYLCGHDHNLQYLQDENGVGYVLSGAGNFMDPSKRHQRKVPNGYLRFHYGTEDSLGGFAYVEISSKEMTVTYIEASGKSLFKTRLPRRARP
Procedure: Equal concentrations of fluorescently labeled TBP and SCP are prepared in 1× phosphate-buffered saline (PBS). Bone wafers are cut from cortical bone obtained from the femur of a human donor cadaver and incubated in peptide solutions overnight, washed twice with 1×PBS, and then visualized via confocal imaging. Stacked sections are compressed into 2D images to allow for qualitative analysis as in FIG. 3A through FIG. 3D.

B1: 5% TBP-functionalized PEG polymer, M:CTA:I 125:1:0.1, Mn 17.1 kDa (Table 4) (peptide)
peptide: Methacryloyl-TPLSYLKGLVTVG
modifications: not fully specified; also: RAFT copolymer with PEG methyl ether methacrylate, about 3 peptides per chain
Kd [1]: 70 µM

B2: 5% TBP-functionalized PEG polymer, M:CTA:I 250:1:0.1, Mn 42.3 kDa (Table 4) (peptide)
peptide: Methacryloyl-TPLSYLKGLVTVG
modifications: not fully specified; also: RAFT copolymer with PEG methyl ether methacrylate, about 5 peptides per chain
Kd [1]: 80 µM

Binder: Methacryloyl-TPLSYLKGLVTVG (also: RAFT copolymer with PEG monomethyl ether methacrylate, multivalent) [20% peptide monomer TBP-functionalized PEG polymer (Table 1, Mn 26700 Da)]
Kd [2]: 7.1 to 21 µM | Kd [3]: 7.5 µM

Binder: Methacryloyl-TPLSYLKGLVTVG (also: RAFT copolymer with PEG monomethyl ether methacrylate, multivalent) [5% peptide monomer TBP-functionalized PEG polymer (Table 1, Mn 103900 Da)]
Kd [3]: 21.7 µM | Kd [4]: 7.1 to 21 µM

B4: 10% TBP-functionalized polymer (pTBP), M:CTA:I 300:1:0.1, Mn 40.1 kDa (Table 4) (peptide)
peptide: Methacryloyl-TPLSYLKGLVTVG
modifications: not fully specified; also: RAFT copolymer with PEG methyl ether methacrylate, about 9 peptides per chain
Kd [1]: 60 µM

Binder: Methacryloyl-TPLSYLKGLVTVG (also: RAFT copolymer with PEG monomethyl ether methacrylate, multivalent) [10% peptide monomer TBP-functionalized PEG polymer (Table 1, Mn 69000 Da)]
Kd [3]: 12.7 µM

The next lines start with the values.

Kd [1]: 140 µM
B3: 5% TBP-functionalized PEG polymer, M:CTA:I 600:1:0.1, Mn 98.2 kDa (Table 4) (peptide)
peptide: Methacryloyl-TPLSYLKGLVTVG
modifications: not fully specified; also: RAFT copolymer with PEG methyl ether methacrylate, about 11 peptides per chain

Kd [5]: 200 µM | Kd [6]: 700 µM | Kd [3]: 795 µM
Binder: TPLSYLKGLVTVG [TRAP-binding peptide (TBP)]

Kd [1]: 70 µM
B5: 20% TBP-functionalized PEG polymer, M:CTA:I 500:1:0.1, Mn 32.7 kDa (Table 4) (peptide)
peptide: Methacryloyl-TPLSYLKGLVTVG
modifications: not fully specified; also: RAFT copolymer with PEG methyl ether methacrylate, about 12 peptides per chain

binding result [7]: no binding
B6: fluorescently labeled scrambled control peptide (SCP) (peptide)
peptide: VPVGTLSYLKLTG
modifications: also: fluorescent cadaverine coupled, site not given here
notes: also called fluorescently labeled SCP; Control (SCP)
